Legend:
[1] = biological target: C. difficile replicative helicase CD3657, purified non-tagged (Clostridium difficile); assay: SEC; analytical gel filtration of purified CD3657 alone, at 10 µM and above (monomer)
[2] = biological target: C. difficile replicative helicase CD3657, purified non-tagged (Clostridium difficile); assay: SEC; analytical gel filtration of CD3657 and CD3654 at high concentrations (approx. 10 µM); Figure S3
[3] = biological target: C. difficile replicative helicase CD3657, purified non-tagged (Clostridium difficile); assay: SEC; analytical gel filtration, Superdex 200 10/300 GL, CD3657 and CD3654 equimolar 2.21 µM (monomer), without ATP; fractions on SDS-PAGE
[4] = biological target: C. difficile putative helicase loader CD3654, purified non-tagged (Clostridium difficile); assay: SEC; analytical gel filtration, Superdex 200 10/300 GL, CD3657 and CD3654 equimolar 2.21 µM (monomer), with 1 mM ATP; fractions on SDS-PAGE
[5] = biological target: C. difficile replicative helicase CD3657, purified non-tagged (Clostridium difficile); assay: as above
[6] = biological target: T1, CD3657 helicase with CD3654 helicase loader (Clostridioides difficile, UniProt Q181Q5+Q181Q8); assay: analytical gel filtration (Superdex […]) with SDS-PAGE; settings: 1 mM ATP; 2.21 uM each protein (monomer); ATP site inferred by the authors to be on CD3657 (Walker A), ATP binding itself not measured
T1 construct: gene dnaC; full-length open reading frames, non-tagged, expressed in E. coli BL21(DE3) from pET vectors; CD3657 monomer 49 kDa, CD3654 38 kDa; most probably 6:6 dodecamer with ATP (522 kDa); with Helicase loader ATPase (DnaI-like AAA+ protein)
T1 sequence (Q181Q8 1-442): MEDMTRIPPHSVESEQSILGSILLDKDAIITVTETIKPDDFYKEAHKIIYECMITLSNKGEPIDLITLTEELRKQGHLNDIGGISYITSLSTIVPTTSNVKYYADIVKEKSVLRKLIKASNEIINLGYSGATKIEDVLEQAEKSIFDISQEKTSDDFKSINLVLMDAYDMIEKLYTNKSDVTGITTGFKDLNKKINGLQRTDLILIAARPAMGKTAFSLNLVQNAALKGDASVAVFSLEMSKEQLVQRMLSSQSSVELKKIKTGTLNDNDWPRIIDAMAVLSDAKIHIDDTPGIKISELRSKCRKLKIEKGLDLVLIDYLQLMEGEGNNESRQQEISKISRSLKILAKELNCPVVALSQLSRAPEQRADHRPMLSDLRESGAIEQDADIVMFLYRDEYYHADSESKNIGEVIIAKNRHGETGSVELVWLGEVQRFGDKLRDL
T1 sequence (Q181Q5 1-330): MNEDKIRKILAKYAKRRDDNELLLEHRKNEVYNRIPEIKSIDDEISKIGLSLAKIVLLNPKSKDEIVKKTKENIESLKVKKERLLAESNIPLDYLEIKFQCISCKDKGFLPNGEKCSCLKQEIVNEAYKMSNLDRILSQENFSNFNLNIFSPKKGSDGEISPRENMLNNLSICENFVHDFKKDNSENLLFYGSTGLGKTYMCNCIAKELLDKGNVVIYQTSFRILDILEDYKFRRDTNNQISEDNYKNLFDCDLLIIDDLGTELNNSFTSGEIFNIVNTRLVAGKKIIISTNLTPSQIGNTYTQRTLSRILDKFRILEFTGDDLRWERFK

[7] = biological target: CD3654 putative helicase loader, bacterial two-hybrid fusion (Clostridium difficile); assay: two-hybrid; bacterial two-hybrid: Zif fusion and RNA polymerase ω subunit fusion, Zif-dependent lacZ reporter in E. coli KDZif1ΔZ, β-galactosidase activity, n = 3
[8] = biological target: CD3657 helicase, bacterial two-hybrid fusion (Clostridium difficile); assay: as above
[9] = biological target: C. difficile replicative helicase CD3657, purified non-tagged (Clostridium difficile)
[10] = biological target: C. difficile replicative helicase CD3657, purified non-tagged (Clostridium difficile); remark: listed apart in the source

For “C. difficile replicative helicase CD3657, purified non-tagged (enzyme)”, the stoichiometry N [1] was 6, the stoichiometry N [2] was 6 and the stoichiometry N [3] was 6. For the same compound, the stoichiometry N (CD3657 per CD3654 (6:6)) [4] was 1 and the stoichiometry N [5] was 6.
In the case of `Nc1ncnc2c1ncn2[C@@H]1O[C@H](COP(=O)(O)OP(=O)(O)OP(=O)(O)O)[C@@H](O)[C@H]1O` [ATP], the “analytical gel filtration (Superdex 200) with SDS-PAGE” value [6] is reported as “CD3657 helicase and the loader CD3654 can form a complex in an ATP-dependent manner”.
Compound “CD3657 helicase, bacterial two-hybrid fusion (enzyme)” has a fold β-galactosidase activity over the reporter strains with the individual plasmids [7] of 5 fold and a fold β-galactosidase activity over the reporter strains with the individual plasmids [8] of 3 fold.
“C. difficile primase CD1454, purified without an affinity tag (enzyme)” showed a helicase assay: displacement of a radiolabelled oligonucleotide annealed to ssM13 by CD3657 with equimolar CD1454 against CD3657 alone, time course to 35 min [9] of 3.5 fold and an RNA primer production by CD1454 on the 5′-d(CTA) 23-mer ssDNA template with against without CD3657, at [CD3657]6:[CD1454]3 [10] of 45.9 nmol.
